The target of the assay is Deinococcus radiodurans MazF (MazF-dr) (Deinococcus radiodurans). In words: crystal structure; apo MazF-dr with N-terminal 6x His-tag, 5 mg/mL, sitting-drop vapor diffusion at 293 K; 0.2 M ammonium sulfate, 0.1 M Bis-Tris pH 5.5, 25% w/v PEG 3350; space group P4(3)2(1)2, dimer in the asymmetric unit; 1.3 Å.

Broadly, the stoichiometry N is the number of molecules, sites or subunits per partner or assembly.

Consider “Deinococcus radiodurans MazF (MazF-dr) (enzyme)”, for which the stoichiometry N worked out at 2.

The values above are taken from paper PMC7933679.
